The values that follow come from patent publication US20170355750A1 (ACADEMIA SINICA, published 2017).

For test [1], the target named is T1, HER2 on the surface of N87 cells (human, UniProt P04626).
T1 construct: full-length receptor on the cell surface
The test is described as follows: flow cytometry on N87 cells; scFv detected with AL2-RFP (1:1 scFv:AL fragment); MFI adjusted over cells with AL2-RFP without scFv. Background: In flow cytometry, cells or beads pass a laser one at a time.
Method: (§1) Mean fluorescence intensities (MFIs) for the same set of scFvs complexed with AL2-RFP in 1:1 ratio of the scFv:AL fragment were measured with N87 (FIG. 10B), SKBR3 (FIG. 10D), BT474 (FIG. 10F), and MCF7 (FIG. 10H) cells by flow cytometry, where the MFIs shown in the y-axis were adjusted over the background value by the cells treated with AL2-RFP without scFv.
(§2) Cells were suspended by trypsin treatment and went through mesh 40-micron pore. About 2×10⁵ cells were incubated with 100 μL scFv at 4° C. for 30 minutes, then washed once with 0.5% FBS 1×PBS (wash buffer), mixed with 1.2 μg AL2-RFP in 50 μL wash buffer at 4° C. for 20 minutes, and then wash twice with washer buffer. After centrifugation and resuspension, cells were analyzed for RFP signal by FACS (BD FACS Canto II).

For test [2], the target named is T2, HER2 on the surface of BT474 cells (human, UniProt P04626).
T2 construct: full-length receptor on the cell surface
The test can be described thus: flow cytometry on BT474 cells; scFv detected with AL2-RFP (1:1 scFv:AL fragment); MFI adjusted over cells with AL2-RFP without scFv.
Method: as §1, §2

B1: GH2-61 scFv (scFv)
scFv: DIQMTQSPSSLSASVGDRVTITCRASQDVGSNVAWYQQKPGKAPKLLISWSTSLYSGVPSRFSGSGSGTDFTLTISSLQPEDFATYYCQQYGGWPITFGQGTKVEIKRGGGGSIEGRSGGGGSEVQLVESGGGLVQPGGSLRLSCAASGFTINNWGIHWVRQAPGKGLEWVAGIWPYGGYTYYADSVKGRFTISADTSKNTAYLQMNSLRAEDTAVYYCARFYNHHGGVMDYWGQGTLVTVSSASAAA
Take B1: the binding result in test [1] and in test [2] was “binds” in each case.

B2: H32 scFv (scFv)
scFv: DIQMTQSPSSLSASVGDRVTITCKASQNVGTAVAWYQQKPGKAPKLLIYSASNRYTGVPSRFSGSGSGTDFTLTISSLQPEDFATYYCQQYSSYPLAFGQGTKVEIKRGGGGSIEGRSGGGGSEVQLVESGGGLVQPGGSLRLSCKASGFNIKDYFMYWVRQAPGKGLEWVGWIDPENGNTIYDPKFQGRFTISADTSKNTAYLQMNSLRAEDTAVYYCTRGYYGSRVLAMDYWGQGTLVTVSSASAAA
notes: also called scFv(H32)
Take B2: the binding result in test [1] and in test [2] was “binds” in each case.

B3: GH2-50 scFv (scFv)
scFv: DIQMTQSPSSLSASVGDRVTITCRASQDVFYGVAWYQQKPGKAPKLLIFWTTYLYSGVPSRFSGSGSGTDFTLTISSLQPEDFATYYCQQYFNWPLTFGQGTKVEIKRGGSSRSSSSGGGGSGGGGEVQLVESGGGLVQPGGSLRLSCAASGFTINNDGIHWVRQAPGKGLEWVAAIGPFWGSTDYADSVKGRFTISADTSTNTAYLHMNSLRAEDTALYYCARFGNYYDGVMDYWGQGTLVTVSSASAAA
B3: the binding result in test [1] and in test [2] was “binds” in each case.

B4: GH2-20 scFv (scFv)
scFv: DIQMTQSPSSLSASVGDRVTITCRASQDVNNNVAWYQQKPGKAPKLLIYWTTYLYSGVPSRFSGSGSGTDFTLTISSLQPEDFATYYCQQGSNWPITFGQGTKVEIKRGGSSRSSSSGGGGSGGGGEVQLVESGGGLVQPGGSLRLSCAASGLTINDYGIHWVRQAPGKGLEWVASIGPSGGFTSYADSVKGRFTISADTSKNTAYLQMNSLRAEDTAVYYCARFVIYWGFFMDYWGQGTLVTVSSASAAA
For the molecule B4, the binding result in test [1] and in test [2] was “binds” each time.

B5: GH2-41 scFv (scFv)
scFv: DIQMTQSPSSLSASVGDRVTITCRASQDVSNSVAWYQQKPGKAPKLLISGAAWLYSGVPSRFSGSGSGTDFTLTISSLQPEDFATYYCQQSGNFPLTFGQGTKVEIKRGGSSRSSSSGGGGSGGGGEVQLVESGGGLVQPGGSLRLSCAASGFTISNWGIHWVRQAPGKGLEWVASIGPSGGFTSYADSVKGRFTISADTSKNTAYLQMNSLRAEDTAVYYCARFYIYGGVIMDYWGQGTLVTVSSASAAA
For the molecule B5, the binding result in test [1] and in test [2] was “binds” in each case.
